From the supplement of paper PMC10567573

B1: ZNF449 (parent)
chain: FQEYDTDCEVFRQRFRQFQYREAA

Variants of: B1
Assay: protein stability index of a GFP-peptide fusion (GPS, HEK-293T) (PSI 1-6); higher = more stable
Conditions: c terminus: a fixed tail appended
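Further: lentivirally expressed fusions sorted by FACS into six bins by GFP to DsRed ratio, PSI derived from sequencing read proportions per bin multiplied by bin number.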

Compared with FQEYDTDMEVFRQRFRQFQYREAA [C8M], FQEYDTDIEVFRQRFRQFQYREAA [C8I] is lower in protein stability index: 2.71 for the first, 2.49 for the second.

First: FQEYDTDVEVFRQRFRQFQYREAA [C8V]
Second: FQEYDTDLEVFRQRFRQFQYREAA [C8L]
The protein stability index of the first is higher: 2.74 for the first, 2.04 for the second.

Going from FQEYDTDHEVFRQRFRQFQYREAA [C8H] to FQEYDTDQEVFRQRFRQFQYREAA [C8Q], the protein stability index falls from 3.01 to 2.21.

Compared with FQEYDTDTEVFRQRFRQFQYREAA [C8T], FQEYDTDGEVFRQRFRQFQYREAA [C8G] is lower in protein stability index: 2.71 for the first, 2.08 for the second.

Going from FQEYDTDDEVFRQRFRQFQYREAA [C8D] to FQEYDTDFEVFRQRFRQFQYREAA [C8F], the protein stability index falls from 3.11 to 2.24.

First: FQEYDTDAEVFRQRFRQFQYREAA [C8A]
Second: FQEYDTDEEVFRQRFRQFQYREAA [C8E]
The protein stability index of the first is lower: 2.76 for the first, 3.42 for the second.

Compared with FQEYDTDREVFRQRFRQFQYREAA [C8R], FQEYDTDNEVFRQRFRQFQYREAA [C8N] is higher in protein stability index: 2.32 for the first, 2.58 for the second.

Compared with FQEYDTDSEVFRQRFRQFQYREAA [C8S], FQEYDTDPEVFRQRFRQFQYREAA [C8P] is lower in protein stability index: 2.88 for the first, 2.7 for the second.

First: FQEYDTDWEVFRQRFRQFQYREAA [C8W]
Second: FQEYDTDKEVFRQRFRQFQYREAA [C8K]
The protein stability index of the first is lower: 1.83 for the first, 2.63 for the second.

First: FQEYDTDYEVFRQRFRQFQYREAA [C8Y]
Second: FQEYDTCCEVFRQRFRQFQYREAA [D7C]
The protein stability index of the first is higher: 2 for the first, 1.1 for the second.

Going from FQEYDTQCEVFRQRFRQFQYREAA [D7Q] to FQEYDTGCEVFRQRFRQFQYREAA [D7G], the protein stability index falls from 2.68 to 2.02.

Going from FQEYDTACEVFRQRFRQFQYREAA [D7A] to FQEYDTTCEVFRQRFRQFQYREAA [D7T], the protein stability index rises from 1.53 to 2.08.

Going from FQEYDTNCEVFRQRFRQFQYREAA [D7N] to FQEYDTHCEVFRQRFRQFQYREAA [D7H], the protein stability index rises from 1.83 to 2.12.

Going from FQEYDTKCEVFRQRFRQFQYREAA [D7K] to FQEYDTYCEVFRQRFRQFQYREAA [D7Y], the protein stability index falls from 2.02 to 1.34.

Going from FQEYDTVCEVFRQRFRQFQYREAA [D7V] to FQEYDTPCEVFRQRFRQFQYREAA [D7P], the protein stability index rises from 1.34 to 1.61.

Compared with FQEYDTFCEVFRQRFRQFQYREAA [D7F], FQEYDTECEVFRQRFRQFQYREAA [D7E] is lower in protein stability index: 2.27 for the first, 2.26 for the second.

First: FQEYDTICEVFRQRFRQFQYREAA [D7I]
Second: FQEYDTSCEVFRQRFRQFQYREAA [D7S]
The protein stability index of the first is higher: 2.25 for the first, 2.1 for the second.

Going from FQEYDTLCEVFRQRFRQFQYREAA [D7L] to FQEYDTRCEVFRQRFRQFQYREAA [D7R], the protein stability index rises from 1.93 to 2.3.

First: FQEYDTMCEVFRQRFRQFQYREAA [D7M]
Second: FQEYDTDCEVFVQRFRQFQYREAA [R12V]
The protein stability index of the first is lower: 1.59 for the first, 2.21 for the second.

Going from FQEYDTDCEVFTQRFRQFQYREAA [R12T] to FQEYDTDCEVFCQRFRQFQYREAA [R12C], the protein stability index falls from 2.41 to 1.71.

Going from FQEYDTDCEVFIQRFRQFQYREAA [R12I] to FQEYDTDCEVFYQRFRQFQYREAA [R12Y], the protein stability index falls from 2.14 to 2.06.

Compared with FQEYDTDCEVFDQRFRQFQYREAA [R12D], FQEYDTDCEVFKQRFRQFQYREAA [R12K] is lower in protein stability index: 3.31 for the first, 2.38 for the second.

First: FQEYDTDCEVFGQRFRQFQYREAA [R12G]
Second: FQEYDTDCEVFPQRFRQFQYREAA [R12P]
The protein stability index of the first is higher: 2.57 for the first, 2.35 for the second.

Compared with FQEYDTDCEVFWQRFRQFQYREAA [R12W], FQEYDTDCEVFSQRFRQFQYREAA [R12S] is higher in protein stability index: 1.94 for the first, 2.53 for the second.

Compared with FQEYDTDCEVFLQRFRQFQYREAA [R12L], FQEYDTDCEVFAQRFRQFQYREAA [R12A] is higher in protein stability index: 1.97 for the first, 3.29 for the second.

Compared with FQEYDTDCEVFEQRFRQFQYREAA [R12E], FQEYDTDCEVFNQRFRQFQYREAA [R12N] is lower in protein stability index: 2.48 for the first, 2.27 for the second.

Compared with FQEYDTDCEVFFQRFRQFQYREAA [R12F], FQEYDTDCEVFMQRFRQFQYREAA [R12M] is lower in protein stability index: 2.54 for the first, 2.24 for the second.

Going from FQEYDTDCEVFQQRFRQFQYREAA [R12Q] to FQEYDTDCEVFHQRFRQFQYREAA [R12H], the protein stability index falls from 2.61 to 2.3.

Compared with FQEYDTDCELFRQRFRQFQYREAA [V10L], FQEYDTDCETFRQRFRQFQYREAA [V10T] is higher in protein stability index: 2.3 for the first, 2.49 for the second.

Compared with FQEYDTDCESFRQRFRQFQYREAA [V10S], FQEYDTDCEEFRQRFRQFQYREAA [V10E] is higher in protein stability index: 2.78 for the first, 3.08 for the second.

Going from FQEYDTDCEQFRQRFRQFQYREAA [V10Q] to FQEYDTDCEAFRQRFRQFQYREAA [V10A], the protein stability index falls from 3.27 to 2.2.

Compared with FQEYDTDCEWFRQRFRQFQYREAA [V10W], FQEYDTDCEMFRQRFRQFQYREAA [V10M] is higher in protein stability index: 2.13 for the first, 2.63 for the second.

First: FQEYDTDCEHFRQRFRQFQYREAA [V10H]
Second: FQEYDTDCEIFRQRFRQFQYREAA [V10I]
The protein stability index of the first is higher: 3 for the first, 2.5 for the second.

First: FQEYDTDCEFFRQRFRQFQYREAA [V10F]
Second: FQEYDTDCECFRQRFRQFQYREAA [V10C]
The protein stability index of the first is higher: 2.86 for the first, 2.52 for the second.

Compared with FQEYDTDCEDFRQRFRQFQYREAA [V10D], FQEYDTDCEKFRQRFRQFQYREAA [V10K] is lower in protein stability index: 3.02 for the first, 2.35 for the second.

First: FQEYDTDCEPFRQRFRQFQYREAA [V10P]
Second: FQEYDTDCEYFRQRFRQFQYREAA [V10Y]
The protein stability index of the first is higher: 2.92 for the first, 2.62 for the second.

Going from FQEYDTDCEGFRQRFRQFQYREAA [V10G] to FQEYDTDCENFRQRFRQFQYREAA [V10N], the protein stability index falls from 2.9 to 2.67.

Going from FQEYDTDCERFRQRFRQFQYREAA [V10R] to FQEYDWDCEVFRQRFRQFQYREAA [T6W], the protein stability index falls from 2.37 to 2.11.

First: FQEYDSDCEVFRQRFRQFQYREAA [T6S]
Second: FQEYDYDCEVFRQRFRQFQYREAA [T6Y]
The protein stability index of the first is lower: 1.73 for the first, 2.81 for the second.

First: FQEYDNDCEVFRQRFRQFQYREAA [T6N]
Second: FQEYDDDCEVFRQRFRQFQYREAA [T6D]
The protein stability index of the first is higher: 2.67 for the first, 2.62 for the second.

Going from FQEYDHDCEVFRQRFRQFQYREAA [T6H] to FQEYDEDCEVFRQRFRQFQYREAA [T6E], the protein stability index rises from 2.1 to 2.17.

Compared with FQEYDVDCEVFRQRFRQFQYREAA [T6V], FQEYDGDCEVFRQRFRQFQYREAA [T6G] is lower in protein stability index: 2.22 for the first, 1.92 for the second.

First: FQEYDIDCEVFRQRFRQFQYREAA [T6I]
Second: FQEYDFDCEVFRQRFRQFQYREAA [T6F]
The protein stability index of the first is higher: 2.74 for the first, 2.22 for the second.

Going from FQEYDCDCEVFRQRFRQFQYREAA [T6C] to FQEYDQDCEVFRQRFRQFQYREAA [T6Q], the protein stability index rises from 1.94 to 2.65.

First: FQEYDLDCEVFRQRFRQFQYREAA [T6L]
Second: FQEYDPDCEVFRQRFRQFQYREAA [T6P]
The protein stability index of the first is lower: 1.89 for the first, 2.77 for the second.

First: FQEYDMDCEVFRQRFRQFQYREAA [T6M]
Second: FQEYDADCEVFRQRFRQFQYREAA [T6A]
The protein stability index of the first is lower: 2.13 for the first, 2.58 for the second.

Going from FQEYDKDCEVFRQRFRQFQYREAA [T6K] to FQEYDTDCSVFRQRFRQFQYREAA [E9S], the protein stability index falls from 2.05 to 1.54.
